Assay [1] addresses T1, MBP-SUFU-Δ (Homo sapiens, UniProt Q9UMX1, DEL285-359/L360P/P281R/P282G/R280S/S279P).
T1 construct: subcloning different SUFU32–483 variants into vector pLJMBP4c; His tag (as in MBP-SUFU-FL; purified on HisTrap) (C); made in house; host or cells: Escherichia coli JM109 (DE3)
The assay is described as follows: SYPRO Orange initial fluorescence upon peptide addition, MBP-SUFU-Δ. The conditions noted are these: excitation 470 nm, emission 570 nm, pH 7.0. It counts as binding. Here is the method:
(§1) Recombinant MBP-SUFU proteins were diluted to 2.6 µM in 50 mM Na HEPES pH 7.0, 50 mM NaCl, 5 mM β-mercaptoethanol; the peptides GLI1p and GLI1p-SH (Supplementary Table S1b), synthesized by Dr W. Mawby (University of Bristol), were dissolved in the same buffer. Proteins were spun at 14 000g for 20 min at 4°C before adding SYPRO Orange (Molecular Probes) to a final concentration of 6×. Reaction volumes of 25 µl were prepared in 96-well PCR plates with 2.2 µM protein/SYPRO Orange solution and, where applicable, 44 µM peptide. Plates were sealed with optical tape, heated from 20 to 90°C in 12 s 0.2°C steps in an iCycler and fluorescence was detected using an excitation wavelength of 470 nm and an emission wavelength of 570 nm.
(§2) Recombinant MBP-SUFU constructs were diluted to 2.5 µM in 50 mM Na HEPES pH 7.0, 50 mM NaCl, 5 mM β-mercaptoethanol and spun at 14 000g for 20 min at 4°C before the addition of SYPRO Orange to a final 5× concentration of dye. The fluorescence of 100 µl samples was measured in black 96-well plates (Nunc) using excitation at λ = 470 nm and emission at λ = 570 nm. GLI1p or GLI1p-SH peptides prepared in the same buffer as above were added in the given ratios and mixed before a second reading was taken. Readings post-peptide addition were divided by the corresponding pre-peptide addition measurements to obtain normalized results. […]

Assay [2] has as its system MBP-SUFU-FL, mutation of Glu376. The assay is described as follows: Microscale thermophoresis, MBP-SUFU-FL mutated at Glu376. It counts as binding, human. The conditions noted are these: mutation of Glu376 in MBP-SUFU-FL, data not shown. Here is the method:
A 5-FAM-labelled peptide (FAM-GLI1p) comprising residues 115–131 of GLI1 (Supplementary Table S1b) was synthesized by Pepceuticals Ltd. A titration series of each recombinant protein was prepared by serial 1:1 dilutions in MST buffer (50 mM Tris–HCl pH 7.6, 150 mM NaCl, 10 mM MgCl2, 0.05% Tween-20) and mixed in a 1:1 ratio with FAM-GLI1p to give final concentrations of 50 nM FAM-GLI1p with MBP-SUFU constructs in the ranges 14.2–29 070 and 54–110 500 nM. Reactions were aspirated into glass capillaries and the thermophoretic movement of FAM-GLI1p was monitored using a Monolith NT.115 instrument (NanoTemper Technologies; Wienken et al., 2010[▶]), with a laser on for 30 s and off for 5 s and a laser power/voltage of 20% for MBP-SUFU-FL and the MBP-SUFU-FL mutants, 40% for MBP-SUFU-Δ and 80% for MBP-SUFU-SH. Fluorescence was measured before laser heating (F Cold) and after 30 s of laser-on time (F Hot). The normalized fluorescence F Hot/F Cold reflects the concentration ratio of labelled molecules. F Hot/F Cold was plotted directly and multiplied by a factor of […], yielding a relative change in fluorescence per thousand. K d was calculated from three independent thermophoresis measurements using NanoTemper software (NanoTemper Technologies). […]
A general note: In MST a laser heats a spot of the sample, and binding alters the fluorescence response.

Assay [3] concerns the target T2, MBP-SUFU-FL (Homo sapiens, UniProt Q9UMX1).
T2 construct: containing residues 32–483 of human SUFU and a C-terminal hexahistidine tag; hexahistidine tag (C); made in house; host or cells: Escherichia coli JM109 (DE3)
Briefly: SYPRO Orange initial fluorescence upon peptide addition, MBP-SUFU-FL. The conditions noted are these: excitation 470 nm, emission 570 nm, pH 7.0. Format: binding. Here is the method:
as §1, §2

Assay [4] deals with MBP-SUFU-SH. Briefly: SYPRO Orange initial fluorescence upon peptide addition, MBP-SUFU-SH. Format: binding, human. The conditions noted are these: excitation 470 nm, emission 570 nm, pH 7.0. Here is the method:
as §1, §2

T1 sequence (Q9UMX1 with tags, fused parts or gaps S279P/R280S/P281R/P282G/DEL285-359/L360P limits assumed, other chains not shown): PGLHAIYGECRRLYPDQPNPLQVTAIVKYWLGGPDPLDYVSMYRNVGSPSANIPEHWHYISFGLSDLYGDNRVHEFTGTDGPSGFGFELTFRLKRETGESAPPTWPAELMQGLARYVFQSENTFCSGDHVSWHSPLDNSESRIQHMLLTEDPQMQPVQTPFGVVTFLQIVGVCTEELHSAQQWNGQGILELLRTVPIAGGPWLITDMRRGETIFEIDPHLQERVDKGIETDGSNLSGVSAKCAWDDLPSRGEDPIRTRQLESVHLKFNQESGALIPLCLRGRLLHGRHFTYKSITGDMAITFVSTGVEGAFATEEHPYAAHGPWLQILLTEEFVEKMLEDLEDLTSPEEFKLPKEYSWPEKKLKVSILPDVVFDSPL
MBP-SUFU-SH, sequence (Q9UMX1 32-278 limits assumed): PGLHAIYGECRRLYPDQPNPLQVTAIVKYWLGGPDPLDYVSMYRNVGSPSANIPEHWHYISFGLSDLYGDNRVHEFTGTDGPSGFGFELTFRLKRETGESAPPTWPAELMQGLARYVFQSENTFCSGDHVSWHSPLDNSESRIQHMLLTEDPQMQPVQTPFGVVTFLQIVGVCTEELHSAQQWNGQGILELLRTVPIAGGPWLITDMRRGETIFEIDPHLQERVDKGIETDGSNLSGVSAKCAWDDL
MBP-SUFU-SH, sequence (Q9UMX1 361-483 limits assumed): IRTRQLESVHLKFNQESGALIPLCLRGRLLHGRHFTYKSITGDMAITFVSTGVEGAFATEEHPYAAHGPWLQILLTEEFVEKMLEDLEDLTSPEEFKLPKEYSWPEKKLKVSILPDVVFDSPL
T2 sequence (Q9UMX1 32-483, other chains not shown): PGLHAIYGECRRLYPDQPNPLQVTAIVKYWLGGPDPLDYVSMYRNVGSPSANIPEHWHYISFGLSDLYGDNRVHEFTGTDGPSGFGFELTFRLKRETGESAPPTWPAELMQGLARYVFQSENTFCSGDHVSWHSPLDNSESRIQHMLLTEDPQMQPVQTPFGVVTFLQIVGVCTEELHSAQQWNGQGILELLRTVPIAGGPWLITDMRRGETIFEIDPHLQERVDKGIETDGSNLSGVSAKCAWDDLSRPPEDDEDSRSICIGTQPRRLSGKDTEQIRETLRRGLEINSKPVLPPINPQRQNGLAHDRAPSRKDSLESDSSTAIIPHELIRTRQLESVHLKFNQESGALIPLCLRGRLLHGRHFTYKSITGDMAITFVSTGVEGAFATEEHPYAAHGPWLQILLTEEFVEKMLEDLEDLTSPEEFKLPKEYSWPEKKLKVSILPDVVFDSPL

As for “GLI1p: human GLI1-derived peptide; residues 115–131, containing the highly conserved SYGH motif (TSPGGSYGHLSIGTMSP)”, the figures for the “initial fluorescence upon addition of GLI1p” value in assay [1], in assay [3] and in assay [4] were “no such effect”, “high initial fluorescence values” and “no such effect”, respectively. In addition, the detectable binding result in assay [2] was “abolished detectable binding”.

These data come from PMC3852661, “Structural basis of SUFU–GLI interaction in human Hedgehog signalling regulation” (Acta Crystallographica Section D: Biological Crystallography, 2013).
